Laboratory results as given in patent US6989260B2, “Human poly(ADP-ribose) polymerase 2 materials and methods” (ICOS Corporation, priority 1999, dated 2006).

Test system: hPARP2 poly(ADP-ribose) polymerase activity
Experiment: Poly(ADP-ribose) polymerase activity assay (32P-NAD+ incorporation, SDS-PAGE, autoradiography)
Format: biochemical, human
Conditions: 250 ng PARP1A/PARP2B or 25 ng FB-hPARP2, 10 min at room temperature, 2.5 μM unlabeled NAD+, E. coli Strain B DNA, gamma-[32P]-NAD+
Source text: The PARP activity of hPARP2, or some substructure thereof, can be measured by the ability of that component to incorporate the ADP-ribose unit from NAD into polymers of ADP-ribose coupled to a protein substrate.
A fusion protein, designated PARP1A/PARP2B, containing aa 1–662 of hPARP1 (SEQ ID NO:25) fused upstream of aa 230–583 of hPARP2 (SEQ ID NO:2) was used in the measurement of hPARP2 poly(ADP-ribose) polymerase activity. PARP1A/PARP2B contained the DNA binding domain (aa 1–373 of SEQ ID NO:25) and automodification domain (aa 373–525 of SEQ ID NO:25) of hPARP1 and the putative catalytic domain of hPARP2 (aa […] of SEQ ID NO:2).
In addition to PARP1A/PARP2B, a full-length hPARP2 protein fused to a poly-His tag (FB-hPARP2) was constructed for use in the measurement of hPARP2 poly(ADP-ribose) polymerase activity. The construction of FB-hPARP2 was carried out as follows.
For poly(ADP-ribose) polymerase activity assays, reagents were obtained from Sigma, unless otherwise indicated. PARP1A/PARP2B (250 ng) or FB-hPARP2 (25 ng) protein was incubated for 10 min at room temperature in assay buffer (total volume of 20 μL) containing 100 mM Tris, pH 8.0, 1 mM MgCl2, 10% glycerol, 1.5 mM dithiothreitol (Boehringer Mannheim/Roche Molecular Biochemicals, Indianapolis, Ind.), 2.5 μM unlabeled NAD^+, 16.7 μg/mL E. coli Strain B DNA, and 0.33 μCi gamma-[^32P]-NAD^+ (NEN, Boston, Mass.). […]

| Molecule | intrinsic poly(ADP-ribose) polymerase activity (ability to produce poly(ADP-ribose) polymers) |
| --- | --- |
| PARP1A/PARP2B: fusion protein containing aa 1–662 of hPARP1 fused upstream of aa 230–583 of hPARP2; His tag leader, Strep-tag (SEQ ID NO:47) | possessed intrinsic poly(ADP-ribose) polymerase activity |
| FB-hPARP2: full-length hPARP2 protein fused to a poly-His tag (SEQ ID NO:59) (protein, poly-His tag) MRGSHHHHHHDYDIPTTENLYFQGAMDPEFKGLRRPMAARRRRSTGGGRARALNESKRVNNGNTAPEDSSPAKKTRRCQRQESKKMPVAGGKANKDRTEDKQDGMPGRSWASKRVSESVKALLLKGKAPVDPECTAKVGKAHVYCEGNDVYDVMLNQTNLQFNNNKYYLIQLLEDDAQRNFSVWMRWGRVGKMGQHSLVACSGNLNKAKEIFQKKFLDKTKNNWEDREKFEKVPGKYDMLQMDYATNTQDEEETKKEESLKSPLKPESQLDLRVQELIKLICNVQAMEEMMMEMKYNTKKAPLGKLTVAQIKAGYQSLKKIEDCIRAGQHGRALMEACNEFYTRIPHDFGLRTPPLIRTQKELSEKIQLLEALGDIEIAIKLVKTELQSPEHPLDQHYRNLHCALRPLDHESYEFKVISQYLQSTHAPTHSDYTMTLLDLFEVEKDGEKEAFREDLHNRMLLWHGSRMSNWVGILSHGLRIAPPEAPITGYMFGKGIYFADMSSKSANYCFASRLKNTGLLLLSEVALGQCNELLEANPKAEGLLQGKHSTKGLGKMAPSSAHFVTLNGSTVPLGPASDTGILNPDGYTLNYNEYIVYNPNQVRMRYLLKVQFNFLQLW | possessed intrinsic poly(ADP-ribose) polymerase activity |
